The text below walks through data of PMC12658102 (2025).

The target of series [1] is TDP-43 C-terminal domain, wild type (human). Description: AUC; sedimentation velocity, 25 °C, 50,000 rpm, absorbance at 280 nm, solution without salt; WT CTD at 33, 58 and 107 µM; c(s) analysis and global Lamm equation modelling of the 58 and 107 µM data (SEDPHAT), monomer-dimer-tetramer model (steps: dimer to monomers; tetramer to dimers); monomer-tetramer model fits similarly.

Series [2] concerns the target TDP-43 CTD F316A. As to the kind of experiment: NMR chemical shift perturbation (15N CSP) as a function of protein concentration. The conditions noted are these: pH 6.1, without salt; 90 μM vs 20 μM protein; read off a plot.
Series [3] deals with TDP-43 CTD L330A. Described as above. Conditions: pH 6.1, without salt; 90 μM vs 20 μM protein; read off a plot.
Series [4] addresses TDP-43 CTD M323A. The description is as above. The conditions noted are these: pH 6.1, without salt; 90 μM vs 20 μM protein; read off a plot.
In series [5] the target is TDP-43 CTD M339A. Described as above. Conditions: pH 6.1, without salt; 90 μM vs 20 μM protein; read off a plot.
In series [6] the target is TDP-43 CTD Q343A. Described as above. Conditions: pH 6.1, without salt; 90 μM vs 20 μM protein; read off a plot.
Series [7] concerns the target TDP-43 CTD S317A. The series is described as above. Conditions: pH 6.1, without salt; 90 μM vs 20 μM protein; read off a plot.
Series [8] addresses TDP-43 CTD S342A. Described as above. The conditions noted are these: pH 6.1, without salt; 90 μM vs 20 μM protein; read off a plot.
Series [9] concerns the target TDP-43 CTD S→E S305C cross-linked (human) (UniProt Q13148). Description: AUC; tetramer-octamer. Conditions: domain or fragment.
The target is the same in series [10]. As to the kind of experiment: AUC; dimer-tetramer. Conditions: domain or fragment.
For series [11], the target named is TDP-43 CTD S→E S317C cross-linked (human) (UniProt Q13148). As to the kind of experiment: AUC; dimer-tetramer, isotherm fit (dimer concentration units). The conditions noted are these: domain or fragment.
The target is the same in series [12]. Description: AUC; dimer-tetramer, global Lamm equation modeling. The conditions noted are these: domain or fragment.
Series [13] deals with the molecule itself. As to the kind of experiment: analytical ultracentrifugation (SEDPHAT).

As usually defined, the stoichiometry N is the number of molecules, sites or subunits per partner or assembly. In the case of “TDP-43 C-terminal domain, wild type (domain or fragment)”, in series [1], the Kd,dim-tet (dimer-tetramer step) was determined as 2.7 µM; the Kd,mon-dim (monomer-dimer step) is 2400 µM; the ceq (concentration for equal population of monomer and tetramer) lay within 250 to 300 µM; the stoichiometry N amounted to 4. As for “TDP-43 C-terminal domain, wild type F316A”, the ratio to parent in series [2] is 0.27.

Regarding “TDP-43 C-terminal domain, wild type L330A”, in series [3], the ratio to parent amounted to 0.13.

Take “TDP-43 C-terminal domain, wild type M323A”: the ratio to parent in series [4] was 0.19.

Regarding “TDP-43 C-terminal domain, wild type M339A”, the ratio to parent in [5] amounted to 0.63. As to “TDP-43 C-terminal domain, wild type Q343A”, the ratio to parent in series [6] stood at 1.2. Consider “TDP-43 C-terminal domain, wild type S317A”, for which the ratio to parent in series [7] was determined as 1.2. Take “TDP-43 C-terminal domain, wild type S342A”: the ratio to parent in series [8] is 1.1. Broadly, the Kd is a measure of binding affinity in units of concentration. Low values mean tighter binding, high ones weaker binding. Consider “TDP-43 CTD S→E S305C cross-linked (from UniProt Q13148)”, for which the Kd in [9] stood at 4.7 µM; in series [10] it was 58 µM. For the molecule “TDP-43 CTD S→E S317C cross-linked (from UniProt Q13148)”, the Kd was 45 µM in [11] and 46 µM in series [12].

B1: TDP-43 CTD conserved region (peptide)
chain: NPAMMAAAQAALQSSWGMMGMLA
B1 had a Kd in series [13] of 2400 µM.

B2: TDP-43 dimer CTD conserved region (peptide)
chain: NPAMMAAAQAALQSSWGMMGMLA
With B2, binding in [13] was characterised by a dissociation constant (Kd) of 2.7 µM.
